B1: scFv F8 (scFv)
scFv: EVQLLESGGGLVQPGGSLRLSCAASGFTFSSYSMSWVRQAPGKGLEWVSGISPGSGSIYYADSVKGRFTISRDNSKNTLYLQMNSLRAEDTAVYYCARRIHPFDYWGQGTLVAVSSGGGGSGGGGSGGGGSQSVLTQPPSASGTPGQRVTISCTGSSSNIGNNDVSWYQQLPGTAPKLLIYSDNQRPSGVPGRFSGSKSGTSASLAISGLRSEDEADYYCGAWDSSLNAYVFGGGTKLTVLG
notes: also called clone G3
B2: scFv F4 (scFv)
scFv: EVQLLESGGGLVQPGGSLRLSCAASGFTFSGYYMSWVRQAPGKGLEWVSSISPSGSSIYYADSVKGRFTISRDNSKNTLYLQMNSLRAEDTAVYYCAKGSPGFDYWGQGTLVTVSSGGGGSGGGGSGGGGSQSVLTQPPSASGAPGQRVTISCSGSSFNIGSNDVSWYQQLPGTAPKLLIYSDSHRPSGVPDRFSGSKSGTSASLAISGLQSEDEADYYCGSWDYSLSAYVFGGGTKLTVLG
B3: scFv F6 (scFv)
scFv: EVQLLESGGGLVQPGGSLRLSCAASGFTFSNYAMSWVRQAPGKGLEWVSSISSNSGNKYYADSVKGRFTISRDNSKNTLYLQMNSLRAEDTAVYYCAKATLGMDHIHAYSAYGMDVWGQGTLVTVSSGGGGSGGGGSGGGGSQSVLTQPPSASGTPGQRATISCTGSSSNIGSNSVSWYQQLPGTAPKLLIYANSNRPSGVPDRFSGSKSGTSASLAISGLRSEDEADYYCAAWDDSLNAYVFGGGTKLTVLG
notes: also called clone C5
B4: scFv N43 (scFv)
scFv: EVQLLESGGGLVQPGGSLRLSCAASGFTFSDYSMGWVRQAPGRGLEWVSGIYPSGGNTYYADSVKGRFTISRDNSKNTLYLQMNSLRAEDTAVYYCAKRPSRFDYWGQGTLVAVSSGGGGSGGGGSGGGGSQSVLTQPPSASGTPGQRVTISCTGSSSNIGNNDVNWYQQLPGTAPKLLIYSNSHRPSGVPDRFSGSKSGTSASLAISGLRSEDEADYYCGTWDDSLNGYVFGGGTKLTVLG
B5: scFv F5 (scFv)
scFv: EVQLLESGGGLVQPGGSLRLSCAASGFTFSDYAMSWVRQAPGKGLEWVSGISYGGGNTYYADSVKGRFTISRDNSKNTLYLQMNSLRAEDTAVYYCAKRLGSFDYWGQGTLVTVSSGGGGSGGGGSGGGGSQSVLTQPPSASGTPGRRVTISCTGTSSNIGSNYVSWYRQLPGTAPKLLIYAGNHRPSGVPDRFSGSKSGTSASLAISGLRSEDEADYYCGSWDSSLSAYVFGGGTKLTVLG
notes: also called clone B5
B6: scFv F10 (scFv)
scFv: EVQLLESGGGLVQPGGSLRLSCAASGFTFSDYSMSWVRQAPGKGLEWVSVISPDSSNTYYADSVKGRFTISRDNSKNTLYLQMNSLRAEDTAVYYCAKVTGTCGPRSCYYYDAMDVWGQGTLVTVSSGGGGSGGGGSGGGGSQSVLTQPPSASGTPGQRVTISCSGSSSNIGSNAVSWYQQLPGTAPKLLIYYNSHRPSGVPDRFSGPKSGTSASLAISGLRSEDEADYYCATWDSSLNGYVFGGGTKLTVLG
B7: scFv N314 (scFv)
scFv: EVQLLESGGGLVQPGGSLRLSCAASGFTFGGYAMSWVRQAPGKGLEWVSGIYPGGGSTYYADSVKGRFTISRDNSKNTLYLQMNSLRAEDTAVYYCARRLTIFDYWGQGTLVTVSSGGGGSGGGGSGGGGSQSVLTQPPSASGTPGQRVTISCSGSSSNIGNNDVTWYQQLPGTAPKLLIYSDSHRPSGVPDRFSGSKSGTSASLAISGLRSEDEADYYCGTWDDSLSGYVFGGGTKLTVLG
notes: also called clone G11
B8: scFv N32 (scFv)
scFv: EVQLLESGGGLVQPGGSLRLSCAASGFTFSNYAMSWVRQAPGKGLEWVSGIYPNSGSNTYYADSVKGRFTISRDNSKNTLYLQMNSLRAEDTAVYYCARRPTLFDYWGQGTLVTVGSGGGGSGGGGSGGGGSQSVLTQPPSASGTPGQRVTISCTGSSSNIGSNSVNWYQQLPGTAPKLLIYSDSHRPSGVPDRFSGSKSGTSASLAISGLQSEDEADYYCATWDDSLNGYVFGGGTKLTVLG
notes: also called clone C9
B9: scFv N34 (scFv)
scFv: EVQLLESGGGLVQPGGSLRLSCAASGFTFSNYAMSWVRQAPGKGLEWVSAIYPGGGSIYYADSVKGRFTISRDNSKNTLYLQMNSLRAEDTAVYYCARRLQIFDYWGQGTLVTVSSGGGGSGGGGSGGGGSQSVLTQPPSASGTPGQRVTISCTGSSSNIGSNNVTWYQQLPGTAPKLLIYSDSHRPSGVPDRFSGSKSGTSASLAISGLQSEDEADYYCGSWDYSLSAYVFGGGTKLTVLG
notes: also called clone C11

target: T1, Annexin A1 on cancer cells (SNU1, MDA-MB-231) (UniProt P04083 2-346, limits assumed); experiment: cell-based ELISA on SNU1 and MDA-MB-231 cells, 250/125/25 ng scFv per well, anti-HA-HRP
T1 construct: whole, on cells; Endogenous protein of cancer cell lines said to overexpress Annexin A1; Assay buffer was HBSS(+) with Ca2+ and Mg2+; also called Annexin A1 on cancer cell surfaces; extracellular portion of Annexin A1 in cancer cells
T1 sequence (looked up): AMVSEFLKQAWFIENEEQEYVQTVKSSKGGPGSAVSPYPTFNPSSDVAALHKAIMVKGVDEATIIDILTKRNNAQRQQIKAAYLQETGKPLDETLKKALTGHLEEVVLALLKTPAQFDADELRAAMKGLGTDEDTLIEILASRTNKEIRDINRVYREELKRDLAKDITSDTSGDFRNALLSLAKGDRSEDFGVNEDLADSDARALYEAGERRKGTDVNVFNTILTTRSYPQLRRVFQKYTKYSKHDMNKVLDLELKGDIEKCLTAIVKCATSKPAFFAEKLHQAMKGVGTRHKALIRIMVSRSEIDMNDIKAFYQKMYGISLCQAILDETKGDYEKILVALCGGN
Experimental: The selected Annexin A1-binding scFv was analyzed for binding specificity by cell-based ELISA using the cancer cells SNU1 and MDA-MB-231 in which Annexin A1 is overexpressed.
Briefly, after SNU1 (ATCC) and MDA-MB-231 (ATCC) cancer cells were maintained at 37° C. in RPMI-1640 and DMEM, respectively, under a supply of 5% CO₂, they were seeded at a density of 5×10⁵ cells into 96-well plates (NUNC). Purified proteins from the selected scFv (N32, N33, N43, N46, N48, N314, N36, F2, F4, F5, F6, F8, F10) were added in an amount of 250 ng, 125 ng, or 25 ng to each well, incubated at 4° C. for 90 min, and washed twice with HBSS (+) buffer (Gibco, 14025-092; HBSS containing Ca²⁺ and Mg²⁺; calcium chloride (CaCl₂) 12.6 mM, magnesium chloride 4.9 mM, and magnesium sulfate 4 mM). Thereafter, a 1/200 dilution of an anti-HA-HRP secondary antibody (Santa Cruz), configured to detect an HA tag conjugated to an scFv terminus, was added to in an amount of 50 ul to each well, and incubated for 1 hr. A color was developed for 10 min with the addition of 150 ul of the Super AquaBlue ELISA substrate solution (eBioScience) for the HRP of the secondary antibody. Absorbance was read at 405 nm to determine the binding of scFv to the Annexin A1 on cancer cells.

Binding result, binds:
B1
B2
B3
B4
B5
B6
B7
B8

target: T2, full-length Annexin A1 protein (346 amino acids; Accession No. NP-000691.1) (human, UniProt P04083 1-346); experiment: scFv selected by ELISA on plate-coated full-length Annexin A1, anti-HA-HRP detection
T2 construct: Biotinylated for biopanning; coated at 4 ug per well for ELISA
T2 sequence: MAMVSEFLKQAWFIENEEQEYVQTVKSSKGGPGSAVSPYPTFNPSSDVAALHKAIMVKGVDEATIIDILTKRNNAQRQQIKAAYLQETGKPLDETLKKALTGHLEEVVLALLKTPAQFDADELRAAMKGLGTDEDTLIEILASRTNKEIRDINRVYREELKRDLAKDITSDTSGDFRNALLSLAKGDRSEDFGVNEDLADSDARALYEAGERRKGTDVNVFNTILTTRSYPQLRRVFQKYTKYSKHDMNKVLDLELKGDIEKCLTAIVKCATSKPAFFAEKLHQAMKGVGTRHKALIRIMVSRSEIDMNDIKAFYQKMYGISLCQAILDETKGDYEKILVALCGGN

Binding result, binds:
B1
B2
B3
B5
B6

Target: T3, Annexin A1 N-terminal peptide (30 amino acids, biotin conjugated) (biotin conjugated form (position not given))
T3 construct: Synthetic peptide, captured on streptavidin-coated plates for ELISA; also called N-terminal region of Annexin A1; Annexin A1 N-terminus
T3 peptide: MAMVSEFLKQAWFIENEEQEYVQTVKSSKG
Experiment: scFv selected by ELISA on biotinylated N-terminal peptide on streptavidin plates, anti-HA-HRP detection

Binding result, binds:
B4
B7
B8

Target: T3, Annexin A1 N-terminal peptide (30 amino …)
Experiment: scFv selected by ELISA on biotinylated N-terminal peptide

Binding result, binds:
B9
